Experimental data as given in publication PMC4551922, “Nucleic acid-binding specificity of human FUS protein”.
Read-outs that look alike come from different tables or passages of the source.

Assays:
MBP-FUS [1] = target: T1, MBP-FUS (human, UniProt P35637 1-526); test: EMSA; conditions: EMSA: 50 mM Tris-HCl pH 7.4, 150 mM KCl, 2 mM MgCl2, 2 mM DTT, 0.1 mg/ml yeast tRNA, 0.1 mg/ml BSA, room temperature, 30 min, trace 32P-RNA
[2] = system: MS2 coat protein (bacteriophage MS2?); conditions: EMSA: 50 mM Tris-HCl pH 7.4, 150 mM KCl, 2 mM MgCl2, 2 mM DTT, 0.1 mg/ml yeast tRNA, 0.1 mg/ml BSA, room temperature, 30 min, trace 32P-RNA
[3] = system: MS2 coat protein (bacteriophage MS2?); conditions: EMSA: 50 mM Tris-HCl pH 7.4, 150 mM KCl, 2 mM MgCl2, 2 mM DTT, 0.1 mg/ml yeast tRNA, 0.1 mg/ml BSA, room temperature, 30 min, trace 32P-RNA; remark: listed apart in the source
MBP-FUS [4] = target: T1, MBP-FUS; test: EMSA; EMSA: 50 mM Tris-HCl pH 7.4, 150 mM KCl, 2 mM MgCl2, 2 mM DTT, 0.1 mg/ml yeast tRNA, 0.1 mg/ml BSA, room temperature, 30 min, trace 32P-RNA; conditions: protein: recombinant, tags: N-terminal His6-MBP (not cleaved)
MBP-LC-RRM = MBP-LC-RRM (human, UniProt P35637 1-384); test: as above; conditions: protein: recombinant, tags: N-terminal MBP, label: 32P
MBP-LC-RRM, sequence (P35637 1-384): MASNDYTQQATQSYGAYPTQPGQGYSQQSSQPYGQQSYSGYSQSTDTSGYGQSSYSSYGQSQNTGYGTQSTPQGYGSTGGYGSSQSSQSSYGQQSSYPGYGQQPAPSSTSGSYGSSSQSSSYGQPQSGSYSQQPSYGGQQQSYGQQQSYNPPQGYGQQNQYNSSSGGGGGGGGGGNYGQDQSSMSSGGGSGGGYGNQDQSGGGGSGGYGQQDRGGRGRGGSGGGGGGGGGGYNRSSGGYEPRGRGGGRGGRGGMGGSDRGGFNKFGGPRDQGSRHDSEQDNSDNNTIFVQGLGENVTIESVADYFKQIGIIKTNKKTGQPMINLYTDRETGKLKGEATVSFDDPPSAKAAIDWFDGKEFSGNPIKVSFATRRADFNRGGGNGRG

MBP-RGG-Znf-RGG = MBP-RGG-Znf-RGG (human, UniProt P35637 385-526); test: as above; conditions: protein: recombinant, tags: N-terminal MBP, label: 32P
MBP-RGG-Znf-RGG, sequence (P35637 385-526): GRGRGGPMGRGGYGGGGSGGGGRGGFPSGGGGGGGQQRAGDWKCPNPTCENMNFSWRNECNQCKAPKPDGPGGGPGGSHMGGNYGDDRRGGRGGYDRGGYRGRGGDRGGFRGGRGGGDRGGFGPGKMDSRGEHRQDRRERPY

MBP-FUS [5] = target: T1, MBP-FUS; test: competition; cold ssDNA vs labeled prD ssRNA; EMSA: 50 mM Tris-HCl pH 7.4, 150 mM KCl, 2 mM MgCl2, 2 mM DTT, 0.1 mg/ml yeast tRNA, 0.1 mg/ml BSA, room temperature, 30 min, trace 32P-RNA; conditions: protein: recombinant; tags: N-terminal His6-MBP (not cleaved); chain copies: 4; label: 32P
MBP-FUS [6] = target: T1, MBP-FUS; test: EMSA; weaker than full prD; similar to 3'prD; EMSA: 50 mM Tris-HCl pH 7.4, 150 mM KCl, 2 mM MgCl2, 2 mM DTT, 0.1 mg/ml yeast tRNA, 0.1 mg/ml BSA, room temperature, 30 min, trace 32P-RNA; conditions: protein: recombinant; tags: N-terminal His6-MBP (not cleaved); label: 32P
MBP-FUS [7] = target: T1, MBP-FUS; test: EMSA; weaker than full prD; similar to 5'prD; EMSA: 50 mM Tris-HCl pH 7.4, 150 mM KCl, 2 mM MgCl2, 2 mM DTT, 0.1 mg/ml yeast tRNA, 0.1 mg/ml BSA, room temperature, 30 min, trace 32P-RNA; conditions: protein: recombinant; tags: N-terminal His6-MBP (not cleaved); label: 32P
[8] = chain copies: 4, label: 32P, blunt

T1 sequence (P35637 whole entry): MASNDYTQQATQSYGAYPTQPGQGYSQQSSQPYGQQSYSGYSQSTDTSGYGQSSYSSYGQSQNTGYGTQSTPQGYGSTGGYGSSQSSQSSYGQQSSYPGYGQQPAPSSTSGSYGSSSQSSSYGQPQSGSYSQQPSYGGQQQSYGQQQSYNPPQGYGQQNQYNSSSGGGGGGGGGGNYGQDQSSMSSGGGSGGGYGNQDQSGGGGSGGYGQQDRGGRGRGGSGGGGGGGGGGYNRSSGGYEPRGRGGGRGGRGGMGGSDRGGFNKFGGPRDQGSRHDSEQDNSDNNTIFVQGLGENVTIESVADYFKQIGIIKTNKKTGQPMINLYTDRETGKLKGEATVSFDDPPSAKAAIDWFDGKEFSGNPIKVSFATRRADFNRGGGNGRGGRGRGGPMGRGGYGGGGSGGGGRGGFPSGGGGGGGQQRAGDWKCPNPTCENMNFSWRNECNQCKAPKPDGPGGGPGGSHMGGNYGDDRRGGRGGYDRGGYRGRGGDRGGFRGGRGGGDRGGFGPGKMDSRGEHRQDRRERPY

## TERRA
MBP-FUS [1]
  Kd: 116 nM

## MBP 1-200
MBP-FUS [1]
  Kd: 56 nM

## MBP 1-100 MS2
[2]
  Kd: 100 nM

## MS2 motif 21 nt
[3]
  Kd: 10 nM

## UUGUAUUUUGAGCUAGUUUGGUGAC (ssRNA) [GGUG]
MBP-FUS [4]
  Kd: 600 ± 20 nM

## UUGUAUUUUGAGCUAGUUUCCUCAC (ssRNA) [GGUG neg]
MBP-FUS [4]; label: 32P
  Kd: 840 ± 50 nM

## AAAAAAAAAAAAAAAAAAAAAAAA (ssRNA) [polyA 24-mer]
MBP-FUS [4]; label: 32P
  Kd: 846 nM

## CCUUAACCCCUCUCUGCCUUCACUCCAACUUCUCUGCUGCUCCUCAAU (ssRNA) [As-prD RNA]
MBP-LC-RRM
  Kd: 280 ± 22 nM
MBP-FUS [4]; label: 32P
  Kd: 79 ± 4 nM
MBP-RGG-Znf-RGG
  Kd: 260 ± 32 nM

## ATTGAGGAGCAGCAGAGAAGTTGGAGTGAAGGCAGAGAGGGGTTAAGG (ssDNA) [prD ssDNA]
MBP-LC-RRM
  Kd: 220 ± 32 nM
MBP-FUS [4]; chain copies: 4, label: 32P
  Kd: 280 ± 26 nM
MBP-RGG-Znf-RGG
  Kd: 290 ± 29 nM
MBP-FUS [5]
  binding signal: 10 fold more than ssRNA

B1: prD dsRNA (dsRNA)
RNA 1: AUUGAGGAGCAGCAGAGAAGUUGGAGUGAAGGCAGAGAGGGGUUAAGG
RNA 2: CCUUAACCCCUCUCUGCCUUCACUCCAACUUCUCUGCUGCUCCUCAAU
MBP-LC-RRM; blunt
  Kd: 2100 ± 60 nM
MBP-FUS [4]; [8]
  Kd: 350 ± 38 nM
MBP-RGG-Znf-RGG; blunt
  Kd: 1100 ± 80 nM

B2: prD dsDNA (dsDNA)
DNA 1: ATTGAGGAGCAGCAGAGAAGTTGGAGTGAAGGCAGAGAGGGGTTAAGG
DNA 2: CCTTAACCCCTCTCTGCCTTCACTCCAACTTCTCTGCTGCTCCTCAAT
MBP-LC-RRM; blunt
  Kd: 1400 ± 170 nM
MBP-FUS [4]; [8]
  Kd: 1200 ± 110 nM
MBP-RGG-Znf-RGG; blunt
  Kd: 1000 ± 81 nM

B3: prD DNA/RNA hybrid (DNA:RNA)
DNA: ATTGAGGAGCAGCAGAGAAGTTGGAGTGAAGGCAGAGAGGGGTTAAGG
RNA: CCUUAACCCCUCUCUGCCUUCACUCCAACUUCUCUGCUGCUCCUCAAU
MBP-LC-RRM; blunt
  Kd: 1200 ± 250 nM
MBP-FUS [4]; [8]
  Kd: 980 ± 100 nM
MBP-RGG-Znf-RGG; blunt
  Kd: 1100 ± 110 nM

## AUUGAGGAGCAGCAGAGAAGUUGGAGUGAAGGCAGAGAGGGGUUAAGG (ssRNA) [prD RNA]
MBP-LC-RRM
  Kd: 60 ± 3 nM
MBP-FUS [4]; label: 32P
  Kd: 97 ± 2 nM
MBP-RGG-Znf-RGG
  Kd: 81 ± 2 nM

## CAACUUAGGUGGUUGAUUUGA (ssRNA) [GUGGU]
MBP-FUS [4]; label: 32P
  Kd: 980 ± 42 nM

## GAUUUAUCUUUAACUACUCAAGAUACUGAACAUGACA (structured_RNA) [Stem-loop]
MBP-FUS [4]; label: 32P, hairpin
  Kd: 430 ± 28 nM

## GGGAGACCAAAACUG (ssRNA) [MBP 1-10]
MBP-FUS [4]; label: 32P
  binding result: no binding

## GGGAGACCAAAACUGAAGAAGGUAA (ssRNA) [MBP 1-20]
MBP-FUS [4]; label: 32P
  binding result: binds

## GAUUUAUCUUUAACUACUCUAUCUUCUGAACAUGACA (ssRNA) [Stem-loop neg]
MBP-FUS [4]; label: 32P
  Kd: 460 ± 39 nM

## AUUGAGGAGCAGCAGAGAAGUUGG (ssRNA) [5'prD]
MBP-FUS [6]
  binding result: binds

## AGUGAAGGCAGAGAGGGGUUAAGG (ssRNA) [3'prD]
MBP-FUS [7]
  binding result: binds

## AGGUCUCAGUUCAUCGCGCGAGGUUAUAGU (ssRNA) [CGCGC]
MBP-FUS [4]; label: 32P
  Kd: 290 ± 13 nM

## AGGGTTAGGGTTAGGGTTAGGG (structured_DNA) [Htelo DNA]
MBP-FUS [4]; label: 32P
  Kd: 730 ± 38 nM

## AGGGTTAGTGTTAGTGTTAGGG (ssDNA) [Htelo DNA neg]
MBP-FUS [4]; label: 32P
  Kd: 690 ± 48 nM
